Data as given in patent US20240408249A1 (NATIONAL RESEARCH COUNCIL OF CANADA, published 2024).

What was measured:
[1] = biological target: T1, EGFRvIII (epidermal growth factor receptor variant III) over-expressed on the U87-EGFRvIII glioblastoma cell … (human, UniProt P00533 298-623); test: radioligand saturation binding on U87-EGFRvIII cells, 2 h on ice, gamma counting, one-site non-linear fit
T1 construct: The assay used cells over-expressing EGFRvIII (whole receptor on cells); EGFRvIII is its in-frame deletion of exons 2-7; also called de2-7EGFR; ΔEGFR
Experimental: (§1) 1. Cell lysate buffer was prepared using PBS with 1% Triton X-100 [0448] 2. Cell binding buffer was prepared using PBS with 0.5% BSA
(§2) This study followed the procedures described below: [0450] 1. Cell preparation: [0451] a. Harvest attached cells: recover sufficient, U87-EGFRvIII cells from T225 flasks using trypsin/EDTA and transfer to a 50 ml culture tube. Dispense a 50 μl sample of resuspended cells into an Eppendorf micro-tube and dilute with 50 μl of trypan blue. Fill a hemocytometer (10 μl) chamber and count the number of cells present. [0452] i. Count cells in four quadrants of the counting area. [0453] ii. Calculate cells/mL: count/4 quadrants×dilution factor×10⁴=cells/mL. [0454] b. Resuspend cells in medium to a final concentration of 3×10⁵ cells/ml. [0455] c. Plate 3×10⁵/1 mL U87-EGFRvIII into designated well of the 24-well plates and gently tap to evenly distribute cells (total 6 plates prepared-4 U87-EGFRvIII, 2 blanks) [0456] d. Incubate plates overnight at 37° C. and 5% CO₂. [0457] 2. Binding assay: [0458] Blocking agent was prepared as follows: 4500 μl as concentration of 4 μM; Final concentration of blocker 2 μM. [0459] For Conjugate A [0460] stock=7.58 mg/mL [0461] mg/ml=52.64 μM, add 342 μl [0462] Binding buffer: 4158 μl [0463] For Conjugate B [0464] stock=6.7 mg/mL [0465] mg/ml=46.53 μM, add 387 μl [0466] Binding buffer: 4113 μl [0467] a. Remove medium from two plates [0468] b. […]

[2] = biological target: T1, EGFRvIII (epidermal growth factor …); test: saturation binding of the 177Lu-labelled conjugate on U87-EGFRvIII cells, 2 h on ice, gamma counting; specific binding curve
Experimental: as §1, §2

| Kd [1] [nM] | EC50 (read off the curve) [2] [nM] | Binder |
| --- | --- | --- |
| 6.78 | – | Conjugate A ([177Lu]-Compound C-anti-EGFRvIII conjugate prepared from EGFRvIII antibody hH2-hL3) (antibody, V domains shown, [177Lu]-Compound C (DOTA chelate with PEG3 linker) conjugated to the antibody; attachment residues not stated; typical chelate to antibody ratios (CARs) of 3-4, Radioimmunoconjugate as tested; also called [177Lu]-DOTA-anti-EGFRvIII; humanized variant of anti-EGFRvIII antibody 4E11) VH: QVQLQESGPGLVKPSQTLSLTCTVSGYSITSDYAWNWIRQPPGKGLEWIGYIGYNGRTSYNPSLKSRVTISRDTSKNQFSLKLSSVTAADTAVYYCARLGRGFAYWGQGTLVTVSS VL: DIQMTQSPSSLSASVGDRVTITCHASQGINSNIGWLQQKPGKAFKGLIYHGTNLEDGVPSRFSGSGSGTDYTLTISSLQPEDFATYYCVQYAQFPYTFGQGTKLEIKR |
| 2.75 | ~3 | Conjugate B ([177Lu]-Compound C-anti-EGFRvIII conjugate prepared from EGFRvIII antibody hH3-hL1) (antibody, V domains shown, [177Lu]-Compound C (DOTA chelate with PEG3 linker) conjugated to the antibody; attachment residues not stated; typical chelate to antibody ratios (CARs) of 3-4, Radioimmunoconjugate as tested; also called [177Lu]-DOTA-anti-EGFRvIII; humanized variant of anti-EGFRvIII antibody 4E11) VH: QVQLQESGPGLVKPSQTLSLTCTVSGYSITSDYAWNWIRQPPGKGLEWMGYIGYNGRTSYNPSLKSRITISRDTSKNQFSLKLSSVTAADTAVYYCARLGRGFAYWGQGTLVTVSS VL: DIQMTQSPSSLSASVGDRVTITCHASQGINSNIGWYQQKPGKAPKLLIYHGTNLEDGVPSRFSGSGSGTDYTLTISSLQPEDFATYYCVQYAQFPYTFGQGTKLEIKR |
